Results as given in patent US20020107366A1 (JURIDICAL FOUNDATION THE CHEMO SERO THERAPEUTIC RESEARCH …, published 2002).

B1: FLAF p35 (ligand)
chain: RNLPTPTPSPGMFQCLNHSQTLLRAISNTLQKARQTLEFYSCTSEEIDHEDITKDKTSTVEACLPLELTMNESCLASREISLITNGSCLASRKTSFMTTLCLSSIYEDLKMYQVEFKAMNAKLLMDPKRQIFLDQNMLTAIDELLQALNVNSVTVPQNSSLEEPDFYKTKIKLCILLHAFRIRAVTINRMMSYLNSS
notes: also called protein with a molecular weight of about 35,000
B2: FLAF p40 (ligand)
chain: IWELEKNVYVVELDWHPDAPGEMVVLTCNTPEEDDITWTSDQSSEVLGSGKTLTIQVKEFADAGQYTCHKGGEVLSHSFLLIHKKEDGIWSTDILREQKESKNKIFLKCEAKNYSGRFTCWWLTAISTDLKFTVKSSRGSSDPQGVTCGAATLSAEKVRVDNRDYKKYTVECQEGSACPAAEESLPIEVVVDAIHKLKYENYTSSFFIRDIIKPDPPKNLQLKPLKNSRHVEVSWEYPDTWSTPHSYFSLTFGVQVQGKNNREKKDRLSVDKTSAKVVCHKDAKIRVQARDRYYSSSWSNWASVSCS
notes: also called protein with a molecular weight of about 40,000

Key:
FLAF p40 = biological target: B2; assay: non-reducing SDS-PAGE and Western blot with anti-p35 and anti-p40 antibodies; subunit association
Protocol: These bands were analyzed by Western blot as described in Example 2 wherein two membranes were prepared, i.e. one using a monoclonal antibody against the partial synthetic peptide of FLAF p35 produced by the clone F18-4 as described in Example 12 as a primary antibody and another using the antibody against FLAF p40 as described in Example 11. As a result, both p75 and p80 reacted with both antibodies to confirm that they are both heterologous dimer of FLAF p35 and FLAF p40.

[1] = biological target: the molecule itself; assay: Western blot of culture supernatant of COS7 cells transfected with CAGfp40; self-association of p40
Protocol: The day (20 hours) before transfection, COS7 cells were plated on a 6 well plate at 2×10⁵ cells/well. On the next day, Lipofect Ace reagent was mixed with the expression plasmid (1 μg of cAGf40 per well) and the mixture was left to stand at room temperature for 15 minutes and then added to the COS7 cells, followed by addition of serum free medium Opti-MEM (0.8 ml). On the next day, 2 ml of serum free medium (ASF104; Ajinomoto K. K.) was added and culture was continued for additional 2 days and then culture supernatant was recovered. A portion of the supernatant was subjected to Western blot as described in Example 11 to detect expression products which reacted with polyclonal antibodies which recognize FLAF p40. As a result, bands corresponding to FLAF p40 reactive with anti-FLAF p40 antibody (MW about 40,000) and to a homologous dimer thereof (MW about 80,000) were detected (FIG. 11).
A polyclonal antibody against FLAF p40 was prepared by injecting each 1 ml of the FLAF p40 expression plasmid (CAGfp40) (1 mg/ml; Example 5) intramuscularly into both rear legs of a rabbit four times at every 3 weeks. Western blot was used to determine whether the obtained antibody recognized FLAF p40 (FIG. 16). First, purified FLAF was subjected to SDS-PAGE in the absence of 2-mercaptoethanol and then transferred to PVDF membrane as described in Example 3. […]

binding result (FLAF p40) | Binder | binding result [1]
binds | B1 | 
 | B2 | binds
